{
  "source": "paper PMC6116203",
  "target": "R1 pyocin fiber PLES_06171 fragment (residues 323–701) (Pseudomonas aeruginosa LESB58)",
  "experiment": "crystal structure",
  "data": [
    {"substance": "R1 pyocin fiber PLES_06171 fragment (residues 323–701) (domain or fragment)", "values": [
      {"measurement": "stoichiometry N", "value": 3}
    ]}
  ]
}
